Measured values reported in publication PMC10929410.

B1: native FlaB (flagellin type B, glycosylated) of Pseudomonas aeruginosa strain PAO1 (natural protein)
chain: MALTVNTNIASLNTQRNLNASSNDLNTSLQRLTTGYRINSAKDDAAGLQISNRLSNQISGLNVATRNANDGISLAQTAEGALQQSTNILQRIRDLALQSANGSNSDADRAALQKEVAAQQAELTRISDTTTFGGRKLLDGSFGTTSFQVGSNAYETIDISLQNASASAIGSYQVGSNGAGTVASVAGTATASGIASGTVNLVGGGQVKNIAIAAGDSAKAIAEKMDGAIPNLSARARTVFTADVSGVTGGSLNFDVTVGSNTVSLAGVTSTQDLADQLNSNSSKLGITASINDKGVLTITSATGENVKFGAQTGTATAGQVAVKVQGSDGKFEAAAKNVVAAGTAATTTIVTGYVQLNSPTAYSVSGTGTQASQVFGNASAAQKSSVASVDISTADGAQNAIAVVDNALAAIDAQRADLGAVQNRFKNTIDNLTNISENATNARSRIKDTDFAAETAALSKNQVLQQAGTAILAQANQLPQAVLSLLR
modifications: simple O-glycan without rhamnose, attached via deoxyhexosamine
B2: recombinant FlaB (non-glycosylated) (natural protein)
chain: B1 chain
B3: deglycosylated native FlaB (natural protein)
chain: B1 chain
modifications: treated with trifluoromethanesulfonic acid to remove the O-glycans

Biological target: human Toll-like receptor 5 on HEK-Blue-hTLR5 reporter cells (human) (UniProt O60602)
UniProt O60602, sequence (O60602 21-858): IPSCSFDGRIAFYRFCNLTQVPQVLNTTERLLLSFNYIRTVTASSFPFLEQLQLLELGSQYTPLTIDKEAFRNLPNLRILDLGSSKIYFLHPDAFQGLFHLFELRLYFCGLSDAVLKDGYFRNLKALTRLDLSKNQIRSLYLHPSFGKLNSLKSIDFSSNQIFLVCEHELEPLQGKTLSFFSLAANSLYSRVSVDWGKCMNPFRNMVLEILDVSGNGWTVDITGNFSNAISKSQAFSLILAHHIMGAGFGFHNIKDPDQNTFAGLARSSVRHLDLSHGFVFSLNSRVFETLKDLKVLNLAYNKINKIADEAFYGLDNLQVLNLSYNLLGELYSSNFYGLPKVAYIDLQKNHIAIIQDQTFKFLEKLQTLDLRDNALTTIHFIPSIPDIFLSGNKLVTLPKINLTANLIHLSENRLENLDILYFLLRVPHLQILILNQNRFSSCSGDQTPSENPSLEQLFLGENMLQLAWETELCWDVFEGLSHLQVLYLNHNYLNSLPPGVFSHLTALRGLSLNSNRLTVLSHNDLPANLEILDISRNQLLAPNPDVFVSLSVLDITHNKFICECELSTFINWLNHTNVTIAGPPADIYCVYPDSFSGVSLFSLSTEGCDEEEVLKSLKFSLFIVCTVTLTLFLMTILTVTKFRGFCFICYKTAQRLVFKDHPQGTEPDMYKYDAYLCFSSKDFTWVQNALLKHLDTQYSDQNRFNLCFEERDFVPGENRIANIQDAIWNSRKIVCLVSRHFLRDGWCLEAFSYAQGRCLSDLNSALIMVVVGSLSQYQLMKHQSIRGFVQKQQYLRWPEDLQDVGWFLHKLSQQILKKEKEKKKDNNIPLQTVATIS

Molecule	EC50 of TLR5 activation (SEAP, OD 620 nm) in HEK-Blue-hTLR5 reporter cells, 10 pg/mL to 10 µg/mL, 24 h	EC50 of TLR5 activation (SEAP, OD 620 nm) in HEK-Blue-hTLR5 reporter cells, 10 pg/mL to 10 µg/mL, 24 h; the sentence prints the label dnFlaA, taken as dnFlaB from the context of Fig. 4D [µg/mL]
deglycosylated native FlaA (from UniProt P21184 1-394) (natural protein)	0.291 µg/mL	
native FlaA (flagellin type A, glycosylated) of Pseudomonas aeruginosa strain PAK (from UniProt P21184 1-394) (natural protein)	0.0021 µg/mL	
recombinant FlaA (non-glycosylated) (from UniProt P21184 1-394) (natural protein)	0.0415 µg/mL	
B1	0.0444 µg/mL	
B2	104	
B3		0.442
